Experimental findings from US20260263521A1 (AIMED BIO, published 2026) are described below.

The target of assay [1] is T1, human CD200R1 expressed on cells (Jurkat-CD200R1, U937-CD200R1, HH cells) (human, UniProt Q8TD46 25-348).
T1 sequence (looked up): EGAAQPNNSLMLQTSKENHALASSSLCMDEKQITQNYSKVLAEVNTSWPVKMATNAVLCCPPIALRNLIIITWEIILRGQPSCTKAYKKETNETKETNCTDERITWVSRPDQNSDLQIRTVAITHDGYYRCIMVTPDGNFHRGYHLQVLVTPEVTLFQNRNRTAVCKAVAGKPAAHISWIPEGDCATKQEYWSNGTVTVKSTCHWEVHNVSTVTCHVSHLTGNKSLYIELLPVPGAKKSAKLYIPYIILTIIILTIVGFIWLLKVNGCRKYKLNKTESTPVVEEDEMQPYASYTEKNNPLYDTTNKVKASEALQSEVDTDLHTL
Kind of assay: cell-based or functional assay.

In assay [2] the target is T1, human CD200R1 expressed on cells …. The experiment in a line: cell-based or functional assay. The source holds these as a separate data set.
Assay [3] concerns the target T2, monkey CD200R1 (ELISA antigen of Example 14) (monkey).
T2 chain: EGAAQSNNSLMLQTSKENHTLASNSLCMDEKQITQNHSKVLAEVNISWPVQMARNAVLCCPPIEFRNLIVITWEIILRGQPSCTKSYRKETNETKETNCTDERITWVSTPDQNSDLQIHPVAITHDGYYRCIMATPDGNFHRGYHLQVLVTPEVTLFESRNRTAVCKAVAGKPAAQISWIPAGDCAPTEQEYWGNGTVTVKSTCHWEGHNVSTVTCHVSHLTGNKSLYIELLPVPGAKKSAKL
Kind of assay: ELISA on monkey CD200R1, normalized absorbance at 450 nm, 0.0192-300 nM; panel 'Cyno CD200R1'.

For a further assay, the target named is T3, Hybrid CD200R1 MH (mouse;human, UniProt Q9ES57;Q8TD46).
T3 construct: single domain; mouse D1 over human D2; also called MH hybrid domain; P001 MH domain
T3 sequence (hybrid extracellular part, looked up): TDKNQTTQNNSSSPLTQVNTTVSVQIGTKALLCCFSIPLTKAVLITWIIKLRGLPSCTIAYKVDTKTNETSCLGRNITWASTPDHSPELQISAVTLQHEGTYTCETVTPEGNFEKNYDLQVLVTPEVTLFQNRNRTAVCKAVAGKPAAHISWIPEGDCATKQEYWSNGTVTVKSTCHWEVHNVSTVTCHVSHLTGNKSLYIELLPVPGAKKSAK
Kind of assay: ELISA, plate-bound MH hybrid (1 ug/mL), antibody 0.0192-300 nM, O.D 450 nm; panel 'P001 MH domain-2)'. The protocol:
Recombinant proteins were produced from the extracellular Ig-like V-type domain and Ig-like C2-type domain of human CD200R1, each designed as human-mouse (HM hybrid domain) and mouse-human (MH hybrid domain) recombinant proteins. A 96-well plate was coated at a concentration of 1 μg/mL with each protein at 4° C. for 16 hours and blocked with 3% skim milk. […] After color development with TMB substrate solution (Thermo Scientific, 34029, 1-Step™ Ultra TMB-ELISA Substrate Solution), the color reaction was stopped with a stop solution (Invitrogen, SS04, ELISA Stop Solution), and the absorbance was measured at an O.D. of 450 nm.
Background: In an ELISA, binding on a coated surface is turned into a signal by an enzyme label.

The target of assay [4] is T4, human CD200R1 with dual His-tags (human, UniProt Q8TD46 25-265).
T4 construct: Captured on the SPR chip by an anti-histidine antibody; also called hCD200R1-his; not shown: dual His-tags
T4 sequence (looked up): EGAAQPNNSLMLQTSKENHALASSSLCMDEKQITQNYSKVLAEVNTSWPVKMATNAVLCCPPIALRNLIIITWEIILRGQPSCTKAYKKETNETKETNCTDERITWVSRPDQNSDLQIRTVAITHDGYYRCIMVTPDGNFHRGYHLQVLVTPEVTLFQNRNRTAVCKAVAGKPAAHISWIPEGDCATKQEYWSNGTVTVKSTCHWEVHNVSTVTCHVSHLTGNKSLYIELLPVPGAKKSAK
Kind of assay: SPR (Biacore CM5), His-tagged antigen captured by anti-histidine antibody, antibody as analyte, 1:1 Langmuir fit. As for the experimental part:
(§1) For the experiment, 30 μg/mL of an anti-histidine antibody was conjugated to a CM5 biacore chip via an amine bond while allowing to flow at 10 μl/min (10,000 RU). Then, 0.25 μg/mL of human or cynomolgus CD200R1 with dual His-tags was captured onto the completed chip for 60 seconds, and the binding ability of each antibody was analyzed. All experiments were performed by association of antibodies for 120 seconds and dissociation of antibodies for 600 seconds. The resulting graphs were fitted using a 1:1 Langmuir binding kinetic model (FIG. 16), and the kinetics of each antibody were calculated.
Background: In SPR one partner is held on a chip, and binding of the other changes the refractive index at the surface.

In assay [5] the target is T5, cynomolgus CD200R1 with dual His-tags (cynomolgus, UniProt G7NZT0 25-266).
T5 construct: Captured on the SPR chip by an anti-histidine antibody; also called CCD200R1-his; cCD200R1-his; not shown: dual His-tags
T5 sequence: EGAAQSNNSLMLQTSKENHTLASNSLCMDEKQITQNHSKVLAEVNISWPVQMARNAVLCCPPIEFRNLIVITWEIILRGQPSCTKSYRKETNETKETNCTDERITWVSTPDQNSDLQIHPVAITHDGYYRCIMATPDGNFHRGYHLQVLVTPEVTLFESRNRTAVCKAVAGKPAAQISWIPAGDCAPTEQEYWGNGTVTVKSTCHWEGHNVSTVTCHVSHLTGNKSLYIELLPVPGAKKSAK
The description is as above. As for the experimental part: as §1

B1: P001009 (IgG) (antibody, V domains shown)
VH: EVQLLESGGGLVQPGGSLRLSCAASGFTFSSYDMSWVRQAPGKGLEWVSWISHGGGSIYYADSVKGRFTISRDNSKNTLYLQMNSLRAEDTAVYYCARDAPAYSAPLFDYWGQGTLVTVSS
VL: QSVLTQPPSASGTPGQRVTISCSGSSSNIGNNAVNWYQQLPGTAPKLLIYYDSNRPSGVPDRFSGSKSGTSASLAISGLRSEDEADYYCAAWDDSLSGYVFGGGTKLTVL
notes: also called P001009 WT; P001009 wt
A word on the EC50 (read off the curve): it is the concentration that produces a half-maximal response. For orientation: Kd means the equilibrium constant for the complex coming apart. As a reminder, the koff is the rate constant with which the complex falls apart. As usually defined, the kon is the rate constant with which the complex forms. For B1, in assay [1], the “IC50 (nM) of IL-6 inhibition, LPS-treated U937-CD200R1 cells” value was 0.35 nM and the “IC50 (nM) of TNF-α inhibition, LPS-treated U937-CD200R1 cells” value is 0.62 nM. For the same molecule, the “EC50 (nM), degree of signal transduction by the Dok2 protein” value in assay [2] was determined as 1.57 nM. Also, the “EC50 (read off the curve)” value in assay [3] was approximately 5 nM. The binding result with Hybrid CD200R1 MH was “no binding (tested: 300 nM)”. For the same molecule, in assay [4], the dissociation constant Kd is 0.0475 nM, the koff came to 0.000134 s⁻¹ and the association rate constant (kon) amounted to 2.81e+06 M⁻¹ s⁻¹. Moreover, in assay [5], binding was put at a Kd of 2.08 nM, the koff turned out to be 0.0117 s⁻¹ and the on-rate constant (kon) turned out to be 5.63e+06 M⁻¹ s⁻¹.
